# From patent publication US6399321B1 (National Research Council of Canada, priority 1999, dated 2002)
# Experiments:
# RUGT [1] = target: T1, RUGT (Rattus norvegicus, UniProt Q9JLA3); test: Glucosyltransferase assay: incorporation of 3H-glucose in glycoprotein acceptor-substrates by RUGT; format: biochemical; settings: for RUGT activity towards denatured versus native substrate: reduced unfolded, heat-treated or urea-treated versus native protein
# T1 construct: honeybee melittin signal peptide (21 aa, replaces the first 18 aa of RUGT) (N, cleaved yes); made in house; host or cells: Sf9 insect cells, baculovirus (pFastBac1); purified from culture medium
# Experimental: Acid phosphatase was the major substrate glycoprotein used to determine RUGT activity in this study. RNase B was prepared as described elsewhere (Zapun, 1998). Soybean agglutinin (Sigma) was denatured by heating at 100° C. for 15 minutes. Bovine thyroglobulin (Sigma) was denatured with 8M urea and dialyzed against ddH2O. […] Amersham Life Science Inc.) and incubated at 37° C. for 2 hours. Reactions were either analyzed by SDS-PAGE followed by fluorography using Amplify (Amersham Life Science Inc.) or precipitated with ice-cold 10% trichloroacetic acid (TCA), washed twice with TCA and the pellets resuspended in 50 μl 1M Tris-HCl pH 8.0 before counting in a beta counter to quantitate the incorporation of ^3H-glucose in acid phosphatase.
# acid phosphatase = test: Glucosylation of purified acid phosphatase by wild-type and mutant RUGT; format: biochemical, Saccharomyces cerevisiae; settings: purified acid phosphatase as substrate
# Experimental: Based on sequence alignments with other nucleoside diphosphate glycosyltransferases, four independent RUGT mutants D1334A, D1336A, Q1429A and N1433A were designed, amplified by PCR, cloned and sequenced to confirm the presence of diagnostic PstI, BsrBI, XbaI and NaeI sites respectively (FIG. 8).
# Acid phosphatase was the major substrate glycoprotein used to determine RUGT activity in this study. RNase B was prepared as described elsewhere (Zapun, 1998). Soybean agglutinin (Sigma) was denatured by heating at 100° C. for 15 minutes. Bovine thyroglobulin (Sigma) was denatured with 8M urea and dialyzed against ddH2O. […] Reactions were either analyzed by SDS-PAGE followed by fluorography using Amplify (Amersham Life Science Inc.) or precipitated with ice-cold 10% trichloroacetic acid (TCA), washed twice with TCA and the pellets resuspended in 50 μl 1M Tris-HCl pH 8.0 before counting in a beta counter to quantitate the incorporation of ^3H-glucose in acid phosphatase.
# RUGT [2] = target: T1, RUGT; test: Kinetics measurements: Km of UDP-glucose and acid phosphatase for RUGT; format: biochemical; settings: in the presence of 5 μM UDP-glucose; read-out: apparent Km for acid phosphatase
# Experimental: Acid phosphatase was the major substrate glycoprotein used to determine RUGT activity in this study. […] Soybean agglutinin (Sigma) was denatured by heating at 100° C. for 15 minutes. Bovine thyroglobulin (Sigma) was denatured with 8M urea and dialyzed against ddH2O. […] Reactions were either analyzed by SDS-PAGE followed by fluorography using Amplify (Amersham Life Science Inc.) or precipitated with ice-cold 10% trichloroacetic acid (TCA), washed twice with TCA and the pellets resuspended in 50 μl 1M Tris-HCl pH 8.0 before counting in a beta counter to quantitate the incorporation of ^3H-glucose in acid phosphatase.
# Glucosylation reactions were incubated at 37° C. and TCA precipitated at various times up to 120 minutes to determine the rate of incorporation of ^3H-glucose in acid phosphatase.
# T1 sequence (Q9JLA3 43-1547 limits assumed): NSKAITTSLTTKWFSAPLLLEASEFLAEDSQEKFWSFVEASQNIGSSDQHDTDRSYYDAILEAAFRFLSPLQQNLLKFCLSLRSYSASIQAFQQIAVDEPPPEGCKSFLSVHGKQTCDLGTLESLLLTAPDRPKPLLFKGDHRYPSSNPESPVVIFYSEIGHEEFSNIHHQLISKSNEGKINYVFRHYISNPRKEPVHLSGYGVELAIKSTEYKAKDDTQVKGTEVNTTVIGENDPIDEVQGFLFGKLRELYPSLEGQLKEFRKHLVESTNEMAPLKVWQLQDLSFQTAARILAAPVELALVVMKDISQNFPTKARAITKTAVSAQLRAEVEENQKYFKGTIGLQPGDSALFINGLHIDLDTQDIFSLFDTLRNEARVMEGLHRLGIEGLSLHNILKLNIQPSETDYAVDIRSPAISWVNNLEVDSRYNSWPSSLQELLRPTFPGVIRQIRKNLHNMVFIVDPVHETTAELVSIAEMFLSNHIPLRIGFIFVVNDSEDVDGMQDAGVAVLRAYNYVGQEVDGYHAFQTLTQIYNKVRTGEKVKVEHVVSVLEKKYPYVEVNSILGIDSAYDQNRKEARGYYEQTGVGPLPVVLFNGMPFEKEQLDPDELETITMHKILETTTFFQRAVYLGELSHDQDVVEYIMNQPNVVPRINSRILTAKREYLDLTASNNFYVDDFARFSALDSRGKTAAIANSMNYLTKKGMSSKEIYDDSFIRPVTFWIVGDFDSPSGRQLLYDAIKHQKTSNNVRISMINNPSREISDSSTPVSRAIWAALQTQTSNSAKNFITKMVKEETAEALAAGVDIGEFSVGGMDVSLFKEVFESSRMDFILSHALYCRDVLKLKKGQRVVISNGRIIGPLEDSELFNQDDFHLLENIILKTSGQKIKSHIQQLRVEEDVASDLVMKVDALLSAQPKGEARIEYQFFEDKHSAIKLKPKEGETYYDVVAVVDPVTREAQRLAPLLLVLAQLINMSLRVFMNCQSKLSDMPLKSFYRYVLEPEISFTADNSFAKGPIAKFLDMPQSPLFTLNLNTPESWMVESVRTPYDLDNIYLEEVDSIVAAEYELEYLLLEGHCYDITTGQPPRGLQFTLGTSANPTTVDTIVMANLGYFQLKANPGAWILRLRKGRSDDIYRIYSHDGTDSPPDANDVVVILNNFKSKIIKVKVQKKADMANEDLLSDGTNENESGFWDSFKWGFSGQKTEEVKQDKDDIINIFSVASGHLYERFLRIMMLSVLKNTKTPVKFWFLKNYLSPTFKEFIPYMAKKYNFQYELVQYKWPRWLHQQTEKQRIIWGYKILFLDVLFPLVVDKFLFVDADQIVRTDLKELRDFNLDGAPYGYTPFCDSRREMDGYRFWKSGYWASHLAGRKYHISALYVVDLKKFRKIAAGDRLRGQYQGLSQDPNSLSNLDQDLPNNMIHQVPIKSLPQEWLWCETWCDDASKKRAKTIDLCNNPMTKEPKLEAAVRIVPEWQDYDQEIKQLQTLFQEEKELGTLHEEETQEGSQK
Molecule,RUGT activity towards denatured versus native substrate (RUGT [1]),activity relative to the wild-type enzyme (incorporation of 3H-glucose) (acid phosphatase),also measured
"bovine thyroglobulin: bovine thyroglobulin (Sigma), denatured with 8M urea; acceptor substrate [reference compound]",better substrates than the native proteins,–,–
"N1433A: recombinant rat UGGT (RUGT) mutant, N1433 mutated to alanine",–,approximately 2%,–
"Q1429A: recombinant rat UGGT (RUGT) mutant, Q1429 mutated to alanine",–,~20%,–
"soybean agglutinin: soybean agglutinin (Sigma), denatured by heating at 100° C.; acceptor substrate [reference compound]",better substrates than the native proteins,–,–
"D1334A: recombinant rat UGGT (RUGT) mutant, D1334 mutated to alanine",–,no activity at all,–
"D1336A: recombinant rat UGGT (RUGT) mutant, D1336 mutated to alanine",–,no activity at all,–
"RNase B: bovine pancreatic ribonuclease B, glycoprotein acceptor substrate (protein, UniProt P61823 27-150, looked up, glycoform B, bovine pancreatic ribonuclease B, glycoprotein acceptor substrate) Ribonuclease pancreatic: KETAAAKFERQHMDSSTSAASSSNYCNQMMKSRNLTKDRCKPVNTFVHESLADVQAVCSQKNVACKNGQTNCYQSYSTMSITDCRETGSSKYPNCAYKTTQANKHIIVACEGNPYVPVHFDASV",greater activity towards reduced unfolded RNase B than towards the native protein,–,–
"acid phosphatase: yeast acid phosphatase purified from S. cerevisiae DT111, with asparagine-linked [GlcNAc]2-(Man)9 glycans; UGGT acceptor substrate (protein) GTIPLGKLADVDKIGTQKDIFPFLGGAGPYYSFPGDYGISRDLPEGCEMKQLQMVGRHGERYPTVSLAKTIKSTWYKLSNYTRQFNGSLSFLNDDYEFFIRDDDDLEMETTFANSDDVLNPYTGEMNAKRHARDFLAQYGYMVENQTSFAVFTSNSKRCHDTAQYFIDGLGDQFNITLQTVSEAESAGANTLSACNSCPAWDYDANDDIVNEYDTTYLDDIAKRLNKENKGLNLTSTDASTLFSWCAFEVNAKGYSDVCDIFTKDELVHYSYYQDLHTYYHEGPGYDIIKSVGSNLFNASVKLLKQSEIQDQKVWLSFTHDTDILNFLTTAGIIDDKNNLTAEYVPFMGNTFHRSWYVPQGARVYTEKFQCSNDTYVRYVINDAVVPIETCSTGPGFSCEINDFYDYAEKRVAGTDFLKVCNVSSVSNSTELTFYWDWNTTHYNASLLRQ",–,–,incorporation of 3H-glucose on a molar basis relative to RNase B (RUGT [1]; assuming MW of 14 kDa for RNase B): 130 ×; incorporation of 3H-glucose on a molar basis relative to SBA (RUGT [1]; assuming MW of 31 kDa for SBA): 100 ×; incorporation of 3H-glucose on a molar basis relative to Tg (RUGT [1]; assuming MW of 303 kDa for Tg): 4 times; Km (RUGT [2]): 0.3 µM
